Reference: patent publication US20100151486A1, “OSTEOPONTIN FUNCTIONAL EPITOPES, MONOCLONAL ANTIBODIES AGAINST THE EPITOPES AND USES THEREOF” (SHANGHAI NATIONAL ENGINEERING RESEARCH CENTER OF A, priority 2007, published 2010)
Entries after “also recorded” stand apart in the source; their conditions may differ.

Tests used:
MDA-MB-435s cells [1] = assay: Cell adhesion assay on hOPN-coated plate; assay type: cell-based; settings: antibody 25 μg/ml; plate coated with 10 μg/ml hOPN; 2 hrs
Experimental: MDA-MB-435s was purchased from the Institute of Cell Biology of Chinese Academy of Sciences (Shanghai, China), and 23C3D3 was used as the irrelevant antibody.
A 96-well plate (Greiner) was coated with 10 μg/ml hOPN (prepared in Example 3) or BSA (SIGMA) at 4° C. overnight, and was then blocked with 1% BSA/PBS at 37° C. for 1 hour to block any non-specific binding sites. The MDA-MB-435s cells were detached using 0.2% EDTA and then re-suspended in 0.25% BSA/DMEM at the concentration of 5×10^5 cells/ml. To each well, 100 μl (5×10^4) MDA-MB-435s cells were added in the presence of various anti-OPN antibodies (25 μg/ml) murine anti-human OPN antibody 1A12, the human-murine chimeric antibody c 1A12 or the humanized antibody h1A12 as treatment groups and the irrelevant antibody 23C3 as control (25 μg/ml). After incubation at 37° C. for 2 hrs, the medium was removed and washed twice with PBS gently. The adherent cells were fixed in 1% formaldehyde at 4° C. for 10 minutes, stained with 0.5% crystal violet after washed with PBS and lysed with 2% Triton X-100 (50 μl). The absorbance was measured at 595 nm.

MDA-MB-435s cells [2] = assay: Microvessel density (MVD) in tumor, CD31 staining; assay type: in vivo, nude mice; settings: P<0.01
Experimental: The tissue of the in situ tumor in mouse was isolated, and speed-frozen in liquid nitrogen. 8 um serial sections were made in a constant cold box frozen section machine, and dried for 5 min, before being fixed with acetone at −20° C. for 30 min, and then stained with IHC. Incubation with the rat anti-mouse monoclonal antibody CD31 (working concentration 1:100) was carried out at 4′C overnight. The secondary antibody was goat anti-rat IgG/PE (working concentration 1:100). After Hochest33258 contrast stain, photographs were taken under the fluorescence microscope.
The CD31 protein was mainly expressed on the membrane of the vascular endothelial cells, and was expressed in individual vascular endothelial cells and microvessel, intra-tumor microvessel could be visualized with an anti CD31 antibody (FIG. 16).

mouse OPN protein = target: T1, mouse OPN protein (Mus musculus, UniProt P10923); assay: Western blot of 1A12 against mouse OPN protein; assay type: binding
T1 construct: made in house; host or cells: Pichia (yeast), culture supernatant
T1 sequence (P10923 17-294): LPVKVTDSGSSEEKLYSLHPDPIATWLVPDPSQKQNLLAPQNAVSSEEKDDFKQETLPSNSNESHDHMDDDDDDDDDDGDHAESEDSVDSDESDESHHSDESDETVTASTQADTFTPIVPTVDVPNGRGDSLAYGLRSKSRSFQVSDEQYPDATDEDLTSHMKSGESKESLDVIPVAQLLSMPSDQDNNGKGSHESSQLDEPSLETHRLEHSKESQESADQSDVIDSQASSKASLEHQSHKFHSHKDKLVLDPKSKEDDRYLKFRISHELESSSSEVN
Experimental: 100 ug human OPN and an equal volume of Freund's adjuvant were emulsified, and injected intraperitoneally into BALB/C mice. Boost was given every two weeks at the same dose. […] The mouse spleen lymphocytes were fused with NS-1 cells using the classic PEG method. 96-well plate coated with 10 μg/ml human OPN was used for repeated screening by ELISA method to obtain hybridoma cell line 1A12 which was capable of stably expressing anti-human OPN antibody. The strain of 1A12 was amplified, and administrated to BALB/C mice in 5×10^6 cells/mouse (i.p.). The ascites was collected from the 10th day after the injection. The anti-human OPN monoclonal antibody was purified by affinity chromatography using protein A column.

MDA-MB-435s cells [3] = assay: Scratch wound healing assay; assay type: cell-based; settings: antibody 25 μg/ml; 24 hours
Experimental: The MDA-MB-435s cells cultured in a 12-wells plate to almost confluent (90%) washed with PBS and starved overnight with serum-free DMEM. Scratches were made on the cell monolayer using a 10 μl pipette, and PBS was added to wash away the floating cells. The test groups were treated with 25 μg/ml of the murine anti-human OPN antibody 1A12, the human-murine chimeric antibody c1A12 and the humanized antibody h1A12, and the control group, 25 μg/ml of the irrelevant antibody. The cells were incubated in an incubator at 37° C. for 24 hours. The result was expressed as the number of the cells that cross the base line.

MDA-MB-435s cells [4] = assay: Primary breast tumor growth in nude mice (MDA-MB-435s orthotopic); assay type: in vivo; settings: 5 mg/kg, 2 times per week; by the 10th week; P<0.05
Experimental: The MDA-MB-435s cells were detached and re-suspended in serum-free DMEM to the concentration of 5×10^7 cells/ml. Each group of 10 female 4 to 6-week old nude mice were anaesthetized by injection of sodium pentobarbital (ip.). Under sterile condition, the skin was sterilized, and a small incision (0.5-mm) was made in the skin over the lateral thorax below the right limb. The mammary fat pads (mfp) were exposed and MDA-MB-435s cells (5×10^6 in 100 μl DMEM) were orthotopically injected into the mfps. The cut was then closed. The animals were randomly divided into four groups, and each accepted the treatment as specified below from the day after the tumor cell inoculation:
1A12: 5 mg/kg, 2 times per week;
Control antibody: 5 mg/kg, 2 times per week.
The tumor formation in nude mice was observed once a week, the maxima of the diameter (length) and a perpendicular dimension of the tumor (width) were measured using a caliper, and the volume was calculated as follows: Volume=0.52×length×width^2. The changed tumor volumes were plotted versus the time into a tumor growth curve.
The tumor size was plotted versus time into a tumor growth curve. […]

MDA-MB-435s cells [5] = assay: Cell invasion assay (Transwell, Matrigel); assay type: cell-based; settings: antibody 25 μg/ml; in the presence of hOPN; 24 hours
Experimental: The assay of cell invasion was carried out using the Transwell system (Corning) with the pore size of […]. The basement membrane of the upper chamber was coated with the artificial matrix gel (Matrigel). After being dried in a flame hood, the matrigel was hydrated with DMEM at 37° C. for 1 hour. MDA-MB-435s cells were detached using 0.2% EDTA and suspended in 0.25% BSA/DMEM at the concentration of 5×10^5 cells/ml. 100 μl of the obtained cell suspension as well as the following 25 μg/nil of antibodies were respectively added into the upper chamber of each well: 1A12 (murine anti-human OPN antibody), c1A12 (human-mouse chimeric antibody), h1A12 (humanized antibody), and 23C3 (irrelevant antibody control). To lower chamber, 0.25% of BSA/DMEM (with or without OPN) was added. The system was then incubated in incubator at 37° C. for 24 hours. After that, the cells remaining in the upper chamber was wiped away using a cotton swab, and the cells penetrate through the basement membrane into the lower chamber were washed with PBS, fixed with 1% formaldehyde, and then stained with 0.5% crystal violet. The cells were counted in the field at 200× magnification under a microscope.

cross-reaction with the mouse OPN protein (mouse OPN protein): cross-reacted
B1: 1A12: murine anti-hOPN mAb; VH SEQ ID NO: 4, VL SEQ ID NO: 6; from hybridoma 1A12 (antibody, V domains shown)
VH: QVQLEQSGPELVKPGASVKMSCKSSGYTFTTYVMHWVKQKPGQGLEWIGYINPYNDGSKYNEKFKGKATLTSDKSSNTAYMELSSLTSEDSAVYYCASHYGGSPAYWGQGTLVTVSA
VL: DILMTQTPLSLPVSLGDQASISCRSSQSLVHSNGNTYLHWYLQKPGQSPKLLIYKVSNRFSGVPDRFSGSGSGTDFTLKISRVEAEDLGVYFCSQSTHVPWTFGGGTKLEIKR
modifications: amino acid sequence of the heavy chain variable region in 1A12; amino acid sequence of the light chain variable region in 1A12
notes: murine anti-hOPN mAb; from hybridoma 1A12
blocking of the binding between MDA-MB-435s cells and hOPN (MDA-MB-435s cells [1]): effectively block | microvessel density (MVD) in tumor versus irrelevant control (MDA-MB-435s cells [2]): significantly less; also recorded: effectively inhibit | inhibition of the reparation of the scratches and damages (MDA-MB-435s cells [3]): effectively inhibit | tumor size versus irrelevant antibody treated group (MDA-MB-435s cells [4]): significantly smaller; also recorded: effectively inhibit tumor development | blocking of invasion of the basement membrane by MDA-MB-435s (MDA-MB-435s cells [5]): effectively block
